Here are results for two proteins from PMC5099943, “Recombinant L-asparaginase 1 from Saccharomyces cerevisiae: an allosteric enzyme with antineoplastic activity” (Scientific Reports, 2016).

Substrate in series [1]: NC(=O)C[C@H](N)C(=O)O
Description: purified protein. It is filed as biochemical, Saccharomyces cerevisiae. To be noted: 50 mM Tris-HCl pH 8.0, 37 °C, no L-glutamine, sigmoidal, nH 2.2 ± 0.3.

Substrate in series [2]: NC(=O)C[C@H](N)C(=O)O
In words: purified protein. To be noted: 50 mM Tris-HCl pH 8.0, 37 °C, nH 1.1 ± 0.1.

B1: ScASNase1 (L-asparaginase 1) (Saccharomyces cerevisiae S288C) (protein)
chain: LPRIKILGTGGTIASKAIDSSQTAGYHVDLTIQDLLDAIPDISKVCDIEYEQLCNVDSKDINEDILYKIYKGVSESLQAFDGIVITHGTDTLSETAFFIESTIDAGDVPIVFVGSMRPSTSVSADGPMNLYQAICIASNPKSRGRGVLVSLNDQISSGYYITKTNANSLDSFNVRQGYLGNFVNNEIHYYYPPVKPQGCHKFKLRVDGKHFKLPEVCILYAHQAFPPAIVNLVADKYDGIVLATMGAGSLPEEVNETCMKLSLPIVYSKRSMDGMVPIANVPKKGSKEDNLIASGYLSPEKSRILLQLCLAGNYTLEEIKHVFTGVYGG
With B1, in series [1], the K0.5 turned out to be 75 ± 27 µM, the maximum rate (Vmax) worked out at 0.042 µmol/min and the kcat turned out to be 217 ± 14 s⁻¹.

B2: EcASNase2 (L-ASNase type II from Escherichia coli, commercial) (Escherichia coli K-12) (protein)
chain: LPNITILATGGTIAGGGDSATKSNYTVGKVGVENLVNAVPQLKDIANVKGEQVVNIGSQDMNDNVWLTLAKKINTDCDKTDGFVITHGTDTMEETAYFLDLTVKCDKPVVMVGAMRPSTSMSADGPFNLYNAVVTAADKASANRGVLVVMNDTVLDGRDVTKTNTTDVATFKSVNYGPLGYIHNGKIDYQRTPARKHTSDTPFDVSKLNELPKVGIVYNYANASDLPAKALVDAGYDGIVSAGVGNGNLYKSVFDTLATAAKTGTAVVRSSRVPTGATTQDAEVDDAKYGFVASGTLNPQKARVLLQLALTQTKDPQQIQQIFNQY
On to B2, for which, in series [2], the Km worked out at 23 ± 5 µM, the Vmax turned out to be 0.032 µmol/min, the turnover number (kcat) came to 134 s⁻¹ and the catalytic efficiency (kcat/Km) turned out to be 5.8e+06 M⁻¹ s⁻¹.

What is called Vmax is the top rate of the reaction or transport when substrate is in excess. What is called kcat is the maximal rate divided by the concentration of active sites. For orientation: Km means the concentration of substrate that gives half-maximal velocity. Broadly, the kcat/Km is the turnover number divided by the Michaelis constant.
